One data set addresses T1, Siz2∆CT K65E K66E (Saccharomyces cerevisiae? (budding …, UniProt Q12216 1-420, K65E;K66E)).
T1 sequence: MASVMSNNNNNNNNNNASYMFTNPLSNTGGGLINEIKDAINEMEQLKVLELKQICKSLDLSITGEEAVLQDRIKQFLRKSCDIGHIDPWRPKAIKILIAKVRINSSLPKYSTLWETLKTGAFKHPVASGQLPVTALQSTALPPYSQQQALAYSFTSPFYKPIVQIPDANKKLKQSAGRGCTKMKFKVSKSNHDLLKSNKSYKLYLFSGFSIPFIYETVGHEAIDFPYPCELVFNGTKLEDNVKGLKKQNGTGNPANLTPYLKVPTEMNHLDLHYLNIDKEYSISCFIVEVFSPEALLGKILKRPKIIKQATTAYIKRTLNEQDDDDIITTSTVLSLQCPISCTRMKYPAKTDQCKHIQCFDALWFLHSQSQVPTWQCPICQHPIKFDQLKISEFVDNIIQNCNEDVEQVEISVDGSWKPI
Briefly: fluorescence polarization; FP: 20 mM HEPES pH 7.5, 125 mM NaCl, 0.1% Tween-20, 23°C, 50 nM DNA (RPA/SUMO-RPA on ss32: 1 nM DNA, plus 5 mM MgCl2, 1 mM DTT); EMSA: same buffer with 5 mM MgCl2 (Fig 8 also 1 mM DTT), 23°C, 6% gel in 0.5x TBE. The following applies: protein: recombinant; tags: His6-thioredoxin removed with TEV; label: 5' 6-FAM on strand 1; blunt. (Fluorescence polarisation rises when a labelled molecule tumbles more slowly, as on binding a larger partner.)

Data set [1] addresses Siz2 full length;RPA (Rfa1/Rfa2/Rfa3) (Saccharomyces cerevisiae? (budding …, UniProt Q12216;P22336;P26754;P26755 1-726;1-621;1-273;1-122, |)). As to the kind of experiment: EMSA; Siz2 titrated into RPA-DNA; 5 mM MgCl2; FP: 20 mM HEPES pH 7.5, 125 mM NaCl, 0.1% Tween-20, 23°C, 50 nM DNA (RPA/SUMO-RPA on ss32: 1 nM DNA, plus 5 mM MgCl2, 1 mM DTT); EMSA: same buffer with 5 mM MgCl2 (Fig 8 also 1 mM DTT), 23°C, 6% gel in 0.5x TBE. The following applies: protein: recombinant;recombinant; tags: His6-Smt3 removed with Ulp1;noncleavable N-terminal His6 on Rfa2; copies: 1;1;1;1; label: 5' 6-FAM on strand 2 (fw20); 20 bp duplex, 3' overhang 32 nt (dT).

Siz2 full length;RPA (Rfa1/Rfa2/Rfa3) (Saccharomyces cerevisiae?, sequence (P22336 whole entry, chain 2 of 3): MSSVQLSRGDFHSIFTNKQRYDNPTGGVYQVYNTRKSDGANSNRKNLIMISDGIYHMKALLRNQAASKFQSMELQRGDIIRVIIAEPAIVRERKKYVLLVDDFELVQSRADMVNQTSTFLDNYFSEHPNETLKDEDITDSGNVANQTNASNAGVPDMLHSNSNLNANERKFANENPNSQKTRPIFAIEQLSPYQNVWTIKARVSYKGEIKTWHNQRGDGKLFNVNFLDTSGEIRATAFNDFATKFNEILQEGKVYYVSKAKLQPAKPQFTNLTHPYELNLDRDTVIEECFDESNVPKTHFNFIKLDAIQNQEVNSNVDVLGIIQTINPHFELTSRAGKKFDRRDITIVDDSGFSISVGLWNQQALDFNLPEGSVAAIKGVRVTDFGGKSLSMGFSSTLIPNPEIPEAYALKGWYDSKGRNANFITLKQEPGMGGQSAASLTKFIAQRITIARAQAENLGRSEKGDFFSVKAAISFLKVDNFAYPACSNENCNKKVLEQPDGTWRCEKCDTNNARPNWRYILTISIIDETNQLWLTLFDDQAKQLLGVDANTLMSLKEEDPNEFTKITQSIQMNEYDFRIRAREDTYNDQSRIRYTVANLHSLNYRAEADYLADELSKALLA
Siz2 full length;RPA (Rfa1/Rfa2/Rfa3) (Saccharomyces cerevisiae?, sequence (P26754 whole entry, chain 3 of 3): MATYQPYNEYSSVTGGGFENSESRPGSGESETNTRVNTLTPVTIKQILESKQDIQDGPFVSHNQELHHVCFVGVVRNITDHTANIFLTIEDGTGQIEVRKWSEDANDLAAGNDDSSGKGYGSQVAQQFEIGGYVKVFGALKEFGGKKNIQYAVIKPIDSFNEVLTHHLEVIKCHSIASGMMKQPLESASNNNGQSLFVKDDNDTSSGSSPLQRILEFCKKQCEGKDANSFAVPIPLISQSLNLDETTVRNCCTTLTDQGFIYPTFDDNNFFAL
Siz2 full length;RPA (Rfa1/Rfa2/Rfa3) (Saccharomyces cerevisiae?, sequence (P26755 whole entry, chain 4 of 3): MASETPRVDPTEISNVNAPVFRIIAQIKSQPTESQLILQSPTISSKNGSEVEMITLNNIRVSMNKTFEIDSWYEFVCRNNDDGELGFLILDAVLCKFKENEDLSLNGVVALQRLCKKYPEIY

B1: 6-FAM-ds20 (dsDNA)
DNA 1: GCTGTAGCTAGTTTTGCTTC
DNA 2: GAAGCAAAACTAGCTACAGC
Regarding B1, in the data set with Siz2∆CT K65E K66E, the binding result is “no binding”.

B2: 6-FAM-ds20ss32 (mixed)
DNA 1: GAAGCAAAACTAGCTACAGCTTTTTTTTTTTTTTTTTTTTTTTTTTTTTTTT
DNA 2: GCTGTAGCTAGTTTTGCTTC
In the case of B2, the binding result in data set [1] is recorded as “binds”.

Source of the values: publication PMC8591536, “DNA asymmetry promotes SUMO modification of the single‐stranded DNA‐binding protein RPA” (The EMBO Journal, 2021).
